The values that follow are results of earlier work, collected in paper PMC7752828.

Data set [1] addresses Fibrin E-domain E-domain (Homo sapiens) (UniProt P02671).
Data set [2] concerns the target Fibrin(ogen) gamma' chain γ'-domain (Homo sapiens) (UniProt P02679).

Usually Kd stands for the constant that tells how readily two partners part at equilibrium. Turning to Thrombin (from UniProt P00734), the Kd is 2800 nM in data set [1] and 100 nM in data set [2].
